According to patent US20230364193A1, “COMBINED DRUG FOR TREATING CORONARIVUS DISEASE 2019” (SICHUAN UNIVERSITY WEST CHINA HOSPITAL, priority 2020, published 2023):
Like-named read-outs stand apart in the source and are kept apart here.

Tests used:
[1] = system: patients with moderate or severe COVID-19; settings: for clinical improvement rate day 28, (%): called clinical remission rate in b66; for Time for clinical improvement (days), median: called clinical remission; for Time for radiographic improvement (days), median: chest CT, absorption of inflammation; for Time for Viral nucleic acid to turn negative (days), median: real-time fluorescence quantitative PCR; for serious adverse reaction (cases): safety analysis set, the IFN-α case was respiratory failure
SARS-CoV-2 virus [2] = assay: microbe, parasite or virus in culture; settings: Vero-E6
Vero-E6 cells = assay: Cytotoxicity assay on Vero-E6 cells (CCK-8, 48 hours)
Procedure: • 1) Vero-E6 cells were inoculated in a 96-well plate at 1×10^4 cells per well the day before; • 2) The cell state was observed until the confluence reached about 50%. The rSIFN-co was diluted by 2.17-fold with 2×DMEM medium containing 4% […], as the highest concentration, namely 6×10^8 pg/ml.
The plates were cultured in an incubator at 37° C. and 5% CO2; • 4) 48 hours after adding the drug, 1/10 volume of Cell Counting […] (CCK-8) was directly added to the cell culture medium, mixed well, and air bubbles should be avoided. Cells were incubated in an incubator at 37° C. for 1 hour until the color turned into orange. The blank group was set as zero, and the absorbance at 450 nm was measured with a multifunctional microplate reader, and the survival rate was calculated as follows: survival rate (%)=OD450 of the test group/OD450 of the control group×100%.

SARS-CoV-2 virus [3] = settings: for EC50 Experiment 1 / EC50 Experiment 2 / EC50 Experiment 3 / EC50 means: Vero-E6; for EC50 means: mean of 3 experiments
[4] = day 7, percent of group, added to baseline treatment
[5] = day 14, percent of group, added to baseline treatment
[6] = day 28, percent of group, added to baseline treatment

IFN-α
Radiographic Improvement Rate Day 7, (%) ([1]; Day 7): (25.0) %
Rate for Viral nucleic acid to turn negative Day 7, (%) ([1]; Day 7): (31.3) %
Radiographic Improvement Rate Day 14, (%) ([1]; Day 14): (66.7) %
Rate for Viral nucleic acid to turn negative Day 14, (%) ([1]; Day 14): (64.6) %
Radiographic Improvement Rate Day 28, (%) ([1]; Day 28): (79.2) %
Rate for Viral nucleic acid to turn negative Day 28, (%) ([1]; Day 28): (85.4) %
clinical improvement rate day 7, (%) ([1]; day 7): (6.3) %
7-level scale on day 7, 2: Not hospitalized, but unable to return to normal activities, (%) [1, 4]: (12.5) %
7-level scale on day 7, 3: Hospitalized, no need for supplemental oxygen, (%) [1, 4]: (25.0) %
7-level scale on day 7, 4: Hospitalized, requiring supplemental oxygen, (%) [1, 4]: (43.8) %
7-level scale on day 7, 5: Hospitalized, requiring nasal high-flow oxygen therapy or non-invasive mechanical ventilation, (%) [1, 4]: (16.7) %
7-level scale on day 7, 6: Hospitalized, requiring extracorporeal membrane oxygenation, invasive mechanical ventilation, or both, (%) [1, 4]: (2.0) %
clinical improvement rate day 14, (%) ([1]; day 14): (39.6) %
7-level scale on day 14, 2: Not hospitalized, but unable to return to normal activities, (%) [1, 5]: (43.8) %
7-level scale on day 14, 3: Hospitalized, no need for supplemental oxygen, (%) [1, 5]: (31.2) %
7-level scale on day 14, 4: Hospitalized, requiring supplemental oxygen, (%) [1, 5]: (16.7) %
7-level scale on day 14, 5: Hospitalized, requiring nasal high-flow oxygen therapy or non-invasive mechanical ventilation, (%) [1, 5]: (6.3) %
7-level scale on day 14, 6: Hospitalized, requiring extracorporeal membrane oxygenation, invasive mechanical ventilation, or both, (%) [1, 5]: (2.0) %
clinical improvement rate day 28, (%) ([1]; day 28): 77.1%
clinical improvement rate day 28, (%) ([1]; day 28, listed as IFN- α): (77.1) %
7-level scale on day 28, 2: Not hospitalized, but unable to return to normal activities, (%) [1, 6]: (91.6) %
7-level scale on day 28, 3: Hospitalized, no need for supplemental oxygen, (%) [1, 6]: (2.1) %
7-level scale on day 28, 4: Hospitalized, requiring supplemental oxygen, (%) [1, 6]: (4.2) %
7-level scale on day 28, 6: Hospitalized, requiring extracorporeal membrane oxygenation, invasive mechanical ventilation, or both, (%) [1, 6]: (2.1) %
Deterioration rate, (%) ([1]; human, in vivo): (2.1) %
Time for clinical improvement (days), median ([1]; added to baseline treatment): 14.0 days
Time for radiographic improvement (days), median [1]: 10.0 days
Time for Viral nucleic acid to turn negative (days), median [1]: 10.0 days
serious adverse reaction (cases) [1]: 1

CCN(CC)CCCC(C)Nc1ccnc2cc(Cl)ccc12 (stereo not shown) [Chloroquine]
EC50 (SARS-CoV-2 virus [2]; Severe acute respiratory syndrome coronavirus 2, Vero C1008, read-out: EC50 Experiment 1, MOI: 0.005 (50 PFU)): 1.7 µM
EC50 (SARS-CoV-2 virus [2]; Severe acute respiratory syndrome coronavirus 2, Vero C1008, read-out: EC50 Experiment 1, MOI: 0.05 (500 PFU)): 3.65 µM
EC50 (SARS-CoV-2 virus [2]; Severe acute respiratory syndrome coronavirus 2, Vero C1008, read-out: EC50 Experiment 1, MOI: 0.5 (5000 PFU)): 5.25 µM
EC50 (SARS-CoV-2 virus [2]; Severe acute respiratory syndrome coronavirus 2, Vero C1008, read-out: EC50 Experiment 2, MOI: 0.005 (50 PFU)): 1.77 µM
EC50 (SARS-CoV-2 virus [2]; Severe acute respiratory syndrome coronavirus 2, Vero C1008, read-out: EC50 Experiment 2, MOI: 0.05 (500 PFU)): 4.23 µM
EC50 (SARS-CoV-2 virus [2]; Severe acute respiratory syndrome coronavirus 2, Vero C1008, read-out: EC50 Experiment 2, MOI: 0.5 (5000 PFU)): 5.72 µM
EC50 (SARS-CoV-2 virus [2]; Severe acute respiratory syndrome coronavirus 2, Vero C1008, read-out: EC50 Experiment 3, MOI: 0.005 (50 PFU)): 2.34 µM
EC50 (SARS-CoV-2 virus [2]; Severe acute respiratory syndrome coronavirus 2, Vero C1008, read-out: EC50 Experiment 3, MOI: 0.05 (500 PFU)): 2.34 µM
EC50 (SARS-CoV-2 virus [2]; Severe acute respiratory syndrome coronavirus 2, Vero C1008, read-out: EC50 Experiment 3, MOI: 0.5 (5000 PFU)): 5.04 µM
EC50 (SARS-CoV-2 virus [2]; Severe acute respiratory syndrome coronavirus 2, Vero C1008, read-out: EC50 means, MOI: 0.005 (50 PFU), mean of 3 experiments): 1.94 µM
EC50 (SARS-CoV-2 virus [2]; Severe acute respiratory syndrome coronavirus 2, Vero C1008, read-out: EC50 means, MOI: 0.05 (500 PFU), mean of 3 experiments): 3.41 µM
EC50 (SARS-CoV-2 virus [2]; Severe acute respiratory syndrome coronavirus 2, Vero C1008, read-out: EC50 means, MOI: 0.5 (5000 PFU), mean of 3 experiments): 5.34 µM

B1: rSIFN-co: new type of genetically engineered interferon produced by changing 65 bases of the genetic code of IFN-α; amino acid sequence SEQ ID NO.2 (protein)
chain: MCDLPQTHSLGNRRALILLAQMRRISPFSCLKDRHDFGFPQEEFDGNQFQKAQAISVLEMIQQTFNLFSTKDSSAAWDESLLEKFYTELYQQLNDLEACVIQEVGVEETPLMNVDSILAVKKYFQRITLYLTEKKYSPCAWEVVRAEIMRSFSLSTNLQERLRRKE
modifications: rSIFN-co Synthetic amino acid sequence
CC50 Experiment 1 (Vero-E6 cells): 651000 ng/mL
CC50 Experiment 2 (Vero-E6 cells): 806000 ng/mL
CC50 Experiment 3 (Vero-E6 cells): 680000 ng/mL
CC50 means (Vero-E6 cells; mean of 3 experiments): 712000 ng/mL
TI (CC50/EC50) (SARS-CoV-2 virus [3]; MOI: 0.005 (50 PFU)): 5.35×10^7
EC50 Experiment 1 (SARS-CoV-2 virus [3]; MOI: 0.005 (50 PFU)): 0.01531 ng/mL
EC50 Experiment 2 (SARS-CoV-2 virus [3]; MOI: 0.005 (50 PFU)): 0.01401 ng/mL
EC50 Experiment 3 (SARS-CoV-2 virus [3]; MOI: 0.005 (50 PFU)): 0.01058 ng/mL
EC50 means (SARS-CoV-2 virus [3]; MOI: 0.005 (50 PFU)): 0.0133 ng/mL
TI (CC50/EC50) (SARS-CoV-2 virus [3]; MOI: 0.005 (50 PFU), listed as Recombinant super-compound interferon (rSIFN-co)): 5.35 × 10^7
TI (CC50/EC50) (SARS-CoV-2 virus [3]; MOI: 0.05 (500 PFU)): 5.77×10^6
EC50 Experiment 1 (SARS-CoV-2 virus [3]; MOI: 0.05 (500 PFU)): 0.1418 ng/mL
EC50 Experiment 2 (SARS-CoV-2 virus [3]; MOI: 0.05 (500 PFU)): 0.1257 ng/mL
EC50 Experiment 3 (SARS-CoV-2 virus [3]; MOI: 0.05 (500 PFU)): 0.1024 ng/mL
EC50 means (SARS-CoV-2 virus [3]; MOI: 0.05 (500 PFU)): 0.1233 ng/mL
TI (CC50/EC50) (SARS-CoV-2 virus [3]; MOI: 0.05 (500 PFU), listed as Recombinant super-compound interferon (rSIFN-co)): 5.77 × 10^6
TI (CC50/EC50) (SARS-CoV-2 virus [3]; MOI: 0.5 (5000 PFU)): 4.71×10^6
EC50 Experiment 1 (SARS-CoV-2 virus [3]; MOI: 0.5 (5000 PFU)): 0.1886 ng/mL
EC50 Experiment 2 (SARS-CoV-2 virus [3]; MOI: 0.5 (5000 PFU)): 0.1397 ng/mL
EC50 Experiment 3 (SARS-CoV-2 virus [3]; MOI: 0.5 (5000 PFU)): 0.1253 ng/mL
EC50 means (SARS-CoV-2 virus [3]; MOI: 0.5 (5000 PFU)): 0.1512 ng/mL
TI (CC50/EC50) (SARS-CoV-2 virus [3]; MOI: 0.5 (5000 PFU), listed as Recombinant super-compound interferon (rSIFN-co)): 4.71 × 10^6
inhibition of SARS-CoV-2 replication in Vero-E6 cell model (SARS-CoV-2 virus [3]; result in words): dose-dependent manner
Radiographic Improvement Rate Day 7, (%) ([1]; Day 7): (43.5) %
Rate for Viral nucleic acid to turn negative Day 7, (%) ([1]; Day 7): (50.0) %
Radiographic Improvement Rate Day 7, differences (rate difference) ([1]; Day 7, rSIFN-co vs IFN-α): 18.5
Rate for Viral nucleic acid to turn negative Day 7, differences (rate difference) ([1]; Day 7, rSIFN-co vs IFN-α): 18.7
Radiographic Improvement Rate Day 14, (%) ([1]; Day 14): (84.8) %
Rate for Viral nucleic acid to turn negative Day 14, (%) ([1]; Day 14): (76.1) %
Radiographic Improvement Rate Day 14, differences (rate difference) ([1]; Day 14, rSIFN-co vs IFN-α): 18.1
Rate for Viral nucleic acid to turn negative Day 14, differences (rate difference) ([1]; Day 14, rSIFN-co vs IFN-α): 11.5
Radiographic Improvement Rate Day 28, (%) ([1]; Day 28): (91.3) %
Rate for Viral nucleic acid to turn negative Day 28, (%) ([1]; Day 28): (97.8) %
Radiographic Improvement Rate Day 28, differences (rate difference) ([1]; Day 28, rSIFN-co vs IFN-α): 12.1
Rate for Viral nucleic acid to turn negative Day 28, differences (rate difference) ([1]; Day 28, rSIFN-co vs IFN-α): 12.4
clinical improvement rate day 7, (%) ([1]; day 7): (10.9) %
7-level scale on day 7, 2: Not hospitalized, but unable to return to normal activities, (%) [1, 4]: (13.0) %
7-level scale on day 7, 3: Hospitalized, no need for supplemental oxygen, (%) [1, 4]: (19.6) %
7-level scale on day 7, 4: Hospitalized, requiring supplemental oxygen, (%) [1, 4]: (50.0) %
7-level scale on day 7, 5: Hospitalized, requiring nasal high-flow oxygen therapy or non-invasive mechanical ventilation, (%) [1, 4]: (17.4) %
clinical improvement rate day 7, differences (rate difference) ([1]; day 7, rSIFN-co vs IFN-α): 4.6
clinical improvement rate day 14, (%) ([1]; day 14): (65.2) %
7-level scale on day 14, 2: Not hospitalized, but unable to return to normal activities, (%) [1, 5]: (58.7) %
7-level scale on day 14, 3: Hospitalized, no need for supplemental oxygen, (%) [1, 5]: (21.7) %
7-level scale on day 14, 4: Hospitalized, requiring supplemental oxygen, (%) [1, 5]: (17.4) %
7-level scale on day 14, 5: Hospitalized, requiring nasal high-flow oxygen therapy or non-invasive mechanical ventilation, (%) [1, 5]: (2.2) %
clinical improvement rate day 14, differences (rate difference) ([1]; day 14, rSIFN-co vs IFN-α): 25.6
7-level scale on day 28, 2: Not hospitalized, but unable to return to normal activities, (%) [1, 6]: (95.6) %
7-level scale on day 28, 3: Hospitalized, no need for supplemental oxygen, (%) [1, 6]: (2.2) %
7-level scale on day 28, 4: Hospitalized, requiring supplemental oxygen, (%) [1, 6]: (2.2) %
clinical improvement rate day 28, differences (rate difference) ([1]; day 28, rSIFN-co vs IFN-α): 16.4
Time for clinical improvement (days), median ([1]; added to baseline treatment): 11.5 days
Time for radiographic improvement (days), median [1]: 8.0 days
Time for Viral nucleic acid to turn negative (days), median [1]: 7.0 days
Deterioration rate, differences (rate difference) ([1]; rSIFN-co vs IFN-α): −2.1
Time for Viral nucleic acid to turn negative, differences (hazard ratio) ([1]; rSIFN-co vs IFN-α, Cox model): 1.74
Time for clinical improvement, differences (hazard ratio) ([1]; rSIFN-co vs IFN-α, Cox model): 1.76
Time for radiographic improvement, differences (hazard ratio) ([1]; rSIFN-co vs IFN-α, Cox model): 2.19
serious adverse reaction (cases) [1]: no serious adverse reaction
